T1: HCMV gp34 ectodomain displayed on ExpiCHO cells (human cytomegalovirus (HCMV), UniProt P16809 24-182)
T1 construct: also called gp34-FLAG with a PDGFR anchor; not shown: C-terminal FLAG (M2) tag and PDGFR transmembrane domain
T1 sequence: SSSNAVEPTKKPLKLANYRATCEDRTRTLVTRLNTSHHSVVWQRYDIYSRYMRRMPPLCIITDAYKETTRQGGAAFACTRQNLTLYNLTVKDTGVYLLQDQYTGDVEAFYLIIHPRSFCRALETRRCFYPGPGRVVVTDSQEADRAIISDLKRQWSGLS


Key:
[1] = biological target: T1, HCMV gp34 ectodomain displayed on …; experiment: flow cytometry on gp34-transfected ExpiCHO cells, antibody-mFc at 10 ug/mL, anti-mouse Fcγ AF647
Description: Then, hCMV gp34 was expressed on the surface of ExpiCHO cells using a mammalian expression plasmid containing a signal sequence, gp34 ectodomain with a C-terminal FLAG tag, and a PDGFR transmembrane domain. ExpiCHO cells were transfected using the gp34 transmembrane construct and cultured for two days at 37° C./8% CO₂. Successful expression of gp34 on the surface was detected by staining transfected and untransfected ExpiCHO cells with a 1:500 dilution of anti-FLAG PE antibody for 1 hour on ice (Agilent Technologies, Catalogue #PJ315-1). […] Fluorescence was detected using a BD Fortessa system.

[2] = biological target: T2, human IgG1 Fc (no Fab arms) (human, UniProt P0DOX5 230-449 = IgG part); experiment: ELISA, human Fc coated, FLAG-tagged receptor titrated, anti-FLAG (M2)-HRP; curve assigned by paragraph 53 (top line at 10 ug/mL)
T2 construct: also called huFc; hu-Fc

[3] = biological target: T2, human IgG1 Fc (no Fab arms); experiment: ELISA, human Fc coated, FLAG-tagged receptor titrated, anti-FLAG (M2)-HRP; curve assigned by paragraph 53 (lower line at 10 ug/mL)

Binder	binding result [1]	also measured
anti-gp34 antibody 34-4 with murine IgG2a Fc (antibody, V domains shown, Variable domains on human CL and human CH1 joined to murine IgG2a Fc; also called antibody-mFc; not shown: human CH1 region; murine IgG2a Fc (mFc)) VH: QVQLQQSGTVLARPGASVKMSCKASGYTFTAYWMHWVKQRPGQGLEWIGAIYPGNSDAGYNQKFKGKAKLTAVTSTSTAYMELSSLANEDSAVYYCTRWGNNSFWGQGTTLTVSS VL: DIQMTQSPSSMYASLGERVTITCKASQDINSYLTWFQQKPGKSPKTLIYRANRLVDGVPSRFSGSGSGQDYSLTISTLEYEDMGIYYCLQYDEFPPTFGAGTKLELKR	binds	
soluble wild-type HCMV gp34 ectodomain (receptor, Prone to aggregation; SEC-purified for the ELISA; also called WT gp34; wild-type (WT) gp34; not shown: C-terminal FLAG (M2) tag and Strep tag) SSSNAVEPTKKPLKLANYRATCEDRTRTLVTRLNTSHHSVVWQRYDIYSRYMRRMPPLCIITDAYKETTRQGGAAFACTRQNLTLYNLTVKDTGVYLLQDQYTGDVEAFYLIIHPRSFCRALETRRCFYPGPGRVVVTDSQEADRAIISDLKRQWSGLS		EC50 (read off the curve) [2]: ~0.1 µg/mL
soluble HCMV gp34 ectodomain with C150S (gp34-M) (receptor, also called gp34 C150S; Soluble gp34 C150S; not shown: C-terminal FLAG (M2) tag and single Strep tag) SSSNAVEPTKKPLKLANYRATCEDRTRTLVTRLNTSHHSVVWQRYDIYSRYMRRMPPLCIITDAYKETTRQGGAAFACTRQNLTLYNLTVKDTGVYLLQDQYTGDVEAFYLIIHPRSFCRALETRRSFYPGPGRVVVTDSQEADRAIISDLKRQWSGLS		EC50 (read off the curve) [3]: ~0.04 µg/mL
anti-gp34 antibody 34-2 with murine IgG2a Fc (antibody, V domains shown, Variable domains on human CL and human CH1 joined to murine IgG2a Fc; also called antibody-mFc; not shown: human CH1 region; murine IgG2a Fc (mFc)) VH: QVQLQQSGTELVKPGASVKLSCTASGFNIKDTYMHWVKQRPEQGLEWIGRIDPASDDTKYDPKFQGKAAITADTSSNTAYLQLSSLTSEDTAVYYCSKDGYYAYWGQGTLVTVSA VL: DIVMTQSPASLAVSLGQRATISCRASESVDSYGNSFMHWYQQKPGQPPKLLIYRASNLESGIPARFSGSGSRTDFTLTINPVEADDVATYYCQQSYEVPRTFGGGTKLEIKR	binds	
anti-gp34 antibody 34-5 with murine IgG2a Fc (antibody, V domains shown, Variable domains on human CL and human CH1 joined to murine IgG2a Fc; also called antibody-mFc; not shown: human CH1 region; murine IgG2a Fc (mFc)) VH: QVQLQQSGAELVRPGTSVKVSCKTSGYAFTNYLIEWVKQRPGQGLEWIGVINPGSGGTNYNEKFKGKATLTADKSSSTAYMQLSSLTSDDSAVYFCVLQVGRLAYWGQGTLVTVSA VL: not shown	binds	
